3 molecules from patent publication US20140271651A1 (AbbVie / Abbott, published 2014) can be followed below.

Assay [1] has as its target T1, bovine serum albumin (bovine, UniProt P02769 25-607).
T1 construct: also called BSA
The experiment in a line: sandwich EIA, rabbit anti-GP73 coated 1 ug/mL, BSA background, supernatant 1:125, HRP goat anti-mouse IgG Fc. The method, then:
(§1) Cell supernatant samples were analyzed for anti-GP73 antibodies by EIA. Sheep anti-mouse IgG Fc (Jackson Immunoresearch) was coated on 96 well micro-titer EIA plates at 1 μg/mL. After the capture reagent was coated on the solid phase, it was removed and the plates were blocked using a BSA/PBS block solution. The wells were washed with distilled water and cell supernatants were added to the blocked plates and allowed to incubate at room temperature for at least one hour. A mouse monoclonal antibody 14H4-23 (Drexel University) was used a positive control. The anti-mouse IgG Fc captured the anti-GP73 mouse antibody from the supernatant. Following the incubation, the supernatants were washed off using distilled water. An irrelevant mouse-human chimeric antibody was added to all wells and incubated at room temperature for 30 min to block any captured mouse antibodies that react with the human IgG Fc fusion protein linked to the GP73 antigen. The wells were washed with distilled water and GP73-hFc was added to the plates at 200 ng/mL and incubated for 30 min. Following this incubation, the antigen was washed from the plates using distilled water. Biotin labeled goat anti-GP73 was added to the plates at 200 ng/mL and incubated for 30 min at room temperature. The plates were washed and streptavidin-HRPO (Jackson Immunoresearch) (diluted to approximately 200 ng/mL) was added to the plates and allowed to incubate for 30 min. The plates were washed with distilled water and OPD substrate was used as the chromagen to generate signal. Plates were read at 492 nm and the results were analyzed.
(§2) The 24 well cultures were then evaluated by EIA for their ability to form a sandwich with the rabbit anti-GP73 used as a capture reagent coated directly on the solid phase. The same EIA protocol previously described was used, except rabbit anti-GP73 antibody was coated at 1 μg/mL, the GP73-hFc was tested at 200 ng/mL, and a HRP labeled goat anti-mouse IgG FC antibody was used as the conjugate reagent to generate signal.

In assay [2] the target is T1, bovine serum albumin. The experiment in a line: EIA, supernatant 1:25 captured on sheep anti-mouse IgG Fc, BSA in place of antigen. How it is done:
as §1
Positive clones were expanded to 24 well plates in IMDM supplemented with 10% FBS and HT supplement. Following 5-14 days growth, the 24 well cultures were evaluated by EIA in the same manner as previously described, except the supernatant samples were titrated against GP73-hFc and BSA to eliminate non-specific protein binders. Once again the clones generating signal at least 3 times greater than background were considered positive and selected for further evaluation.

Assay [3] concerns the target T2, GP73-hFc (human GP73 amino acids 63 to 400 fused at the C-terminus to human IgG1 Fc) (human).
T2 construct: Expressed in HEK293F, CHO or HepG2 cells; the host is named under assay; also called HEK expressed GP73-hFc; CHO expressed GP73-hFc
T2 chain: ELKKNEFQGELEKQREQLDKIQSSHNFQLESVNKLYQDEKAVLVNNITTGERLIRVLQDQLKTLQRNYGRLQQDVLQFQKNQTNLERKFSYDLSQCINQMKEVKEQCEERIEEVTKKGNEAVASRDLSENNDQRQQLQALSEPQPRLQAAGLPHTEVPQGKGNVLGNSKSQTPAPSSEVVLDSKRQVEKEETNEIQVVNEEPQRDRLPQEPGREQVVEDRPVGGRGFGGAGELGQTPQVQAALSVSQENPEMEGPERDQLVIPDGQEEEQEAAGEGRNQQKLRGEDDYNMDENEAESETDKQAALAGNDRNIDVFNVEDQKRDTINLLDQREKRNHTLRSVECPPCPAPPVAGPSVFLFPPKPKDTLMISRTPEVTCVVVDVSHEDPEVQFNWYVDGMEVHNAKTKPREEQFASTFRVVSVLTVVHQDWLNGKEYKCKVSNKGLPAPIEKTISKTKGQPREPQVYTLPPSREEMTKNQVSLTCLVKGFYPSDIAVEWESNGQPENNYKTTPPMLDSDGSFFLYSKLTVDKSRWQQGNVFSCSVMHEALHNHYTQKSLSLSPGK
In words: EIA, supernatant mAb captured on sheep anti-mouse IgG Fc, GP73-hFc 200 ng/mL, biotin goat anti-GP73/streptavidin-HRPO; background 0.06. How it is done: as §1

Assay [4] addresses T3, E. coli expressed human GP73 (amino acids 63 to 400) with C-terminal 6xHis tag (human, UniProt Q8NBJ4 64-401).
T3 construct: No human Fc, not glycosylated; also called GP73 produced in E. coli; E. coli GP73
T3 sequence: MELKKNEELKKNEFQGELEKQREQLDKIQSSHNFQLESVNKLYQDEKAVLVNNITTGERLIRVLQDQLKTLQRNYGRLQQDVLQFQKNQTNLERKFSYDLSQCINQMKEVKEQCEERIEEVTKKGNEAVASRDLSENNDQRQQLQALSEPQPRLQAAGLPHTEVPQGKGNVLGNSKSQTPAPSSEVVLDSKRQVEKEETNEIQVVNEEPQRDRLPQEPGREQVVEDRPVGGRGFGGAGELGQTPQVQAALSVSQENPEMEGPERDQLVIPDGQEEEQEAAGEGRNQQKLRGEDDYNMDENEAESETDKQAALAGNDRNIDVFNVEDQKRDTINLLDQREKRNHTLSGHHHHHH
The experiment in a line: Western blot on E. coli expressed GP73 antigen. The method, then:
The mammalian cell (HEK and CHO) expressed GP73-hFc or E. coli expressed GP73, as described above, were electrophoresed in a 4-20% SDS-PAGE gel. […] The nitrocellulose membrane was blocked with PBS buffer containing 5% non-fat dry milk and 0.05% Tween 20 for about 1 hr. The nitrocellulose membrane was incubated with an appropriate amount of anti-GP73 monoclonal antibody in 10 mL of 2.5% non-fat dry milk and 0.05% Tween 20 PBS buffer, pH 7.2. The nitrocellulose membranes were washed with 0.05% Tween 20/PBS, pH 7.2, incubated with goat anti-mouse IgG antibody conjugated with HRP for 1 hr at room temperature, and washed with 0.05% Tween 20/PBS buffer. Antibody bound to the GP73 protein was visualized by the addition of freshly prepared metal enhanced 3,3′-Diaminobenzidine in stable peroxide buffer (Pierce, Ill.).

The target in assay [5] is T2, GP73-hFc (human GP73 amino acids 63 to …). The experiment in a line: sandwich EIA, rabbit anti-GP73 coated 1 ug/mL, GP73-hFc 200 ng/mL, supernatant 1:125, HRP goat anti-mouse IgG Fc. How it is done:
as §1, §2

The target is the same in assay [6]. The experiment in a line: SPR Biacore 2000, mAb captured on rabbit anti-mouse IgG, HEK GP73-hFc analyte 0.412-100 nM, 1:1 fit. How it is done: First, an approximately 13,000-15,000 RU rabbit anti-mouse IgG Capture Biosensor was created by amine-coupling rabbit anti-mouse IgG antibody (GE Healthcare) to a CM5 biosensor chip (GE Healthcare) via EDC/NHS/ethanolamine chemistry provided in an Amine Coupling Kit (GE Healthcare) after pre-treating the biosensor with duplicate injections of 100 mM HCl, 50 mM NaOH, and 0.1% SDS. Purified GP73 antibody and antigen (HEK GP73-hFc) were diluted into a running buffer (hereinafter “running buffer”) composed of HBS-EP buffer (GE Healthcare) supplemented with 0.1% BSA and 0.1% CM-Dextran. Each GP73 antibody was diluted to 1 μg/mL. The GP73-hFc antigen was diluted to concentrations of 0.412 to 100 nM using a 3-fold dilution series assuming an oligomeric molecular weight of 490 kDa (Abbott Laboratories).
The GP73-hFc antigen program was as follows. After equilibrating the rabbit anti-mouse IgG Capture Biosensor for 3 min at 5 μL/minute with running buffer, GP73 antibody (7-14 μL) was injected over individual flow cells with one flow cell being left blank as a reference flow cell. The flow cells were washed with running buffer for 3 min at a flow rate of 60 μL/min. 150 μL of HEK293 expressed GP73-hFc antigen at a random concentration was injected across the biosensor. The biosensor was subsequently re-equilibrated with running buffer for 5 min at a flow rate of 60 μL/minute. All biosensor surfaces were regenerated with one 30 μL injection of 10 mM glycine, pH 1.7 (GE Healthcare), at a flow rate of 10 μL/minute. All concentrations of HEK293 expressed antigen were tested in duplicate. The binding kinetics (association and dissociation) were monitored via sensorgrams during antigen injection and running buffer re-equilibration. The sensorgrams were double-referenced and fit to a 1:1 binding model using Scrubber 2.0 software (BioLogic Software Pty Ltd., Australia) to determine association and dissociation rates, as well as overall KD. Standard errors of determined values are reported in parentheses with respect to the smallest number place value.
A general note: In SPR one partner is held on a chip, and binding of the other changes the refractive index at the surface.

Broadly, the Kd is the concentration at which binding is half-saturated. The low end stands for a tighter complex, the high end for a looser complex. Broadly, the koff is a measure of how fast the partners let go of each other. By kon is commonly meant the second-order rate constant of association. Higher therefore signals fast association.

T1 sequence (P02769 25-607 limits assumed): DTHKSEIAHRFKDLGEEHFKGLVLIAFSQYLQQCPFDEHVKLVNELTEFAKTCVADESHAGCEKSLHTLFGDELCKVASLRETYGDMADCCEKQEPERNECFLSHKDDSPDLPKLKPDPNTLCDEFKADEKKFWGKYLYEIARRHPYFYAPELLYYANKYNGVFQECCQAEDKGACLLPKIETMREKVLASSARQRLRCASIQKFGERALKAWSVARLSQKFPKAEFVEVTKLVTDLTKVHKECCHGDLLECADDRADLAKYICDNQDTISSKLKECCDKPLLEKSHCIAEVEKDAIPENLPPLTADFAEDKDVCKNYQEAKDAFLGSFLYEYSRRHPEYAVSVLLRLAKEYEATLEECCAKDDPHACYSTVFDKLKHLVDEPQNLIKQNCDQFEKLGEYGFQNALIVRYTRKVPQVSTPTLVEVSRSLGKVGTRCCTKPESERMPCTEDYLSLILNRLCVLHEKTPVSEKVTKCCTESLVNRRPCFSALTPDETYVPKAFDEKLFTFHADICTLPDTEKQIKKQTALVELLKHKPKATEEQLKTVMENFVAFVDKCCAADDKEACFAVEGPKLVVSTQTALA

B1: anti-GP73 monoclonal antibody 1A-3187 (antibody, V domains shown)
VH: QGQLQQSGAELMKPGASVKISCKATGYTIRSYWIEWVKQRPGHGLEWIGEILPGSGNTNYNEKFKGTATFTADTSSNTVYLHLSSLTSEDSAVYYCANGRGSYRYHWFAYWGQGTLVTVSP
VL: DIVLTQSPASLAVSLGQRATISCKASQSVDYDGDSYMNWYQQKPGQPPKVLIYAASNLESGIPARFSGSGSGTDFTLNIHPVEEEDAATYYCQQSNEDPYTFGGGTKLEMKR
notes: Biotin labelled in some assays
Consider B1, for which the entries for the “BSA Background OD (A492)” value with bovine serum albumin [1] and in the assay with bovine serum albumin [2] were 0.09 OD (A492) and 0.11 OD (A492), respectively.

B2: anti-GP73 monoclonal antibody 1A-4246 (antibody, V domains shown)
VH: EVMLVESGGGLVKPGGSLKLSCAASGFTFSSYAMSWVRLTPEKRLEWVATISSGSSYTYYPDSVKGRFTISRDNVKSTLYLQMSSLRSEDTAMYYCARNWDGELHYYAMDYWGQGTSVTVSS
VL: QIVLTQSPAIMSASLGERVTMTCTASSSVSSSYLHWYQQKPGSSPKLWVYSTSSLASGVPARFSGSGSGTSYSLTINNMEAEDAATYFCHQYHRSPYTFGGGTKLEIKR
notes: Biotin labelled in some assays; also called mAb 1A-4246; 1A-4246-Bt
Regarding B2, in the assay with bovine serum albumin [2], the “BSA Background OD (A492)” value was 0.04 OD (A492).

B3: anti-GP73 monoclonal antibody 1B-3246 (antibody, V domains shown)
VH: DVKLVESGGGLVKPGGSLKLSCAASGFTFSSYTMSWVRQTPEKRLEWVATISRGGTYIYYPDSVKGRFTISRDNAKNTLYLQMSSLKSEDTAIYYCTREYFSGDTYDYFDYWGQGTTLTVSS
VL: EIVMTQAAFANPVTLGTSVSISCRSSKSLLHSNGITYLYWYLQKPGQSPQLLIYQMSNLASGVPDRFSSSGSGTDFTLRISRVEAEDVGIYYCAQNLELYTFGGGTKLEIKR
notes: Biotin labelled in some assays; also called mAb 1B-3246; 1B-3246-Bt
Regarding B3, in the assay with bovine serum albumin [1], the “BSA Background OD (A492)” value is 0.1 OD (A492). For the same molecule, the “OD (A492)” value in assay [3] was 1.48 OD (A492). For the same molecule, the binding result in assay [4] is given as “binds”. Moreover, the “GP73-hFc OD (A492)” value in assay [5] was 0.79 OD (A492). In addition, in assay [6], binding was characterised by a dissociation constant (Kd) of 0.079 nM, the koff worked out at 0.00025 s⁻¹ and the kon came to 3.18e+06 M⁻¹ s⁻¹.
